T1: human NPR1 expressed on CHO-K1 cells (human, UniProt P16066 33-1061)
T1 sequence: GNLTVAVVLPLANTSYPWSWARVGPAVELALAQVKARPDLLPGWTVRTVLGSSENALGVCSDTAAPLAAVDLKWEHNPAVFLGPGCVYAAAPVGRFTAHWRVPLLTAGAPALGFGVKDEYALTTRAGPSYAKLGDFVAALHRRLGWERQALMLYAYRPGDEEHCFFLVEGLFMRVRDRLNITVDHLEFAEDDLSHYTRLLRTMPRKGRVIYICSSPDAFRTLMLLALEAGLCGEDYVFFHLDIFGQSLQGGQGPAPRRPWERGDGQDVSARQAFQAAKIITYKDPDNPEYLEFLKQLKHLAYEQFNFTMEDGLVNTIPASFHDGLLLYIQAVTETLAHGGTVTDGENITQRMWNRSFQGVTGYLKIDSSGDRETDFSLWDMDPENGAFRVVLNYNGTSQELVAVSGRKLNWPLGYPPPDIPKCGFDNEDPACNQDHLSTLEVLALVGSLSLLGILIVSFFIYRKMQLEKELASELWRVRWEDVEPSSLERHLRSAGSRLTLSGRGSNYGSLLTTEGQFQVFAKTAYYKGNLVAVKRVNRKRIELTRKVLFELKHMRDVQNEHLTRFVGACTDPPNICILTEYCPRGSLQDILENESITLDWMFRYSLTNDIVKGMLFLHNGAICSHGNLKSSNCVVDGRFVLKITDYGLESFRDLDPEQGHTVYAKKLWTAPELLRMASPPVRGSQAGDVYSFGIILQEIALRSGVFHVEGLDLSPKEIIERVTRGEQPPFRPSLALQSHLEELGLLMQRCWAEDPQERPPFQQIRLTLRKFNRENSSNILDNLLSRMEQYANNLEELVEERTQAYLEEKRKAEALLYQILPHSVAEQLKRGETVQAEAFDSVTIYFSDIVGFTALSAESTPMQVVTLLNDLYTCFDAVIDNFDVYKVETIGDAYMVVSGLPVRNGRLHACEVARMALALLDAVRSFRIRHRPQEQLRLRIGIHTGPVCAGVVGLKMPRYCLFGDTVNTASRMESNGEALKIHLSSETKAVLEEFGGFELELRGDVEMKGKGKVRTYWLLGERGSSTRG

T2: human NPR1 (Natriuretic Peptide Receptor 1), recombinant antigen (human, UniProt P16066 33-473)
T2 construct: also called hNPR1; NPR1-hFc
T2 sequence: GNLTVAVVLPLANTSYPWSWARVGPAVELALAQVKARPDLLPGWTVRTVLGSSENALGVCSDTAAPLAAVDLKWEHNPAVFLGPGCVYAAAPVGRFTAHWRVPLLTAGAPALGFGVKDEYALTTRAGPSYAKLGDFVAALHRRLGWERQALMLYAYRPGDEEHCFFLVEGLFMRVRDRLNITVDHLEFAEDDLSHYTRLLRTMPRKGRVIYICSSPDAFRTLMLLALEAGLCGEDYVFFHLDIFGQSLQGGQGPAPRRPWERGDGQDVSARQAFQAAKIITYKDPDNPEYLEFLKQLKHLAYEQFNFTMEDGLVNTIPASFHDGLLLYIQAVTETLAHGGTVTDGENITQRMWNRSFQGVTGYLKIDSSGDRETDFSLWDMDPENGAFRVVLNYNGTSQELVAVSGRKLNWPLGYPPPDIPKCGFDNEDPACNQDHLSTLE

T3: human NPR1-ANP complex (human, UniProt P01160 124-151, limits assumed)
T3 construct: Receptor antigen measured in the presence of ANP; also called hNPR1 + ANP; hNPR1-ANP-complex
T3 sequence: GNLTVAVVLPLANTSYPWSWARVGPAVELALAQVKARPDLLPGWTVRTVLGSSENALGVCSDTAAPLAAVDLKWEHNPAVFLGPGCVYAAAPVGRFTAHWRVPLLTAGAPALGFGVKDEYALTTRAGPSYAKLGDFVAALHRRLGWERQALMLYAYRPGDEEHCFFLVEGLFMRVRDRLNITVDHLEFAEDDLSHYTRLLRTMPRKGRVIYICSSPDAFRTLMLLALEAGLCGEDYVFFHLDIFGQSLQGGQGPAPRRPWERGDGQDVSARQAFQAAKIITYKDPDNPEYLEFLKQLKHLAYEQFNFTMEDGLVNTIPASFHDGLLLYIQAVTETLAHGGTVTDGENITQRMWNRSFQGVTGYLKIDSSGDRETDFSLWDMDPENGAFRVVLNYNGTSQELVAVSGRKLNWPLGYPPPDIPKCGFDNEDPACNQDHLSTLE
T3 sequence (peptide): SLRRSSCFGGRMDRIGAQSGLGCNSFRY

T4: human NPR1 expressed on CHO-K1 cells in the presence of ANP (human, UniProt P01160 124-151)
T4 construct: also called hNPR1 CHO K1 + 100 nM ANP
T4 sequence: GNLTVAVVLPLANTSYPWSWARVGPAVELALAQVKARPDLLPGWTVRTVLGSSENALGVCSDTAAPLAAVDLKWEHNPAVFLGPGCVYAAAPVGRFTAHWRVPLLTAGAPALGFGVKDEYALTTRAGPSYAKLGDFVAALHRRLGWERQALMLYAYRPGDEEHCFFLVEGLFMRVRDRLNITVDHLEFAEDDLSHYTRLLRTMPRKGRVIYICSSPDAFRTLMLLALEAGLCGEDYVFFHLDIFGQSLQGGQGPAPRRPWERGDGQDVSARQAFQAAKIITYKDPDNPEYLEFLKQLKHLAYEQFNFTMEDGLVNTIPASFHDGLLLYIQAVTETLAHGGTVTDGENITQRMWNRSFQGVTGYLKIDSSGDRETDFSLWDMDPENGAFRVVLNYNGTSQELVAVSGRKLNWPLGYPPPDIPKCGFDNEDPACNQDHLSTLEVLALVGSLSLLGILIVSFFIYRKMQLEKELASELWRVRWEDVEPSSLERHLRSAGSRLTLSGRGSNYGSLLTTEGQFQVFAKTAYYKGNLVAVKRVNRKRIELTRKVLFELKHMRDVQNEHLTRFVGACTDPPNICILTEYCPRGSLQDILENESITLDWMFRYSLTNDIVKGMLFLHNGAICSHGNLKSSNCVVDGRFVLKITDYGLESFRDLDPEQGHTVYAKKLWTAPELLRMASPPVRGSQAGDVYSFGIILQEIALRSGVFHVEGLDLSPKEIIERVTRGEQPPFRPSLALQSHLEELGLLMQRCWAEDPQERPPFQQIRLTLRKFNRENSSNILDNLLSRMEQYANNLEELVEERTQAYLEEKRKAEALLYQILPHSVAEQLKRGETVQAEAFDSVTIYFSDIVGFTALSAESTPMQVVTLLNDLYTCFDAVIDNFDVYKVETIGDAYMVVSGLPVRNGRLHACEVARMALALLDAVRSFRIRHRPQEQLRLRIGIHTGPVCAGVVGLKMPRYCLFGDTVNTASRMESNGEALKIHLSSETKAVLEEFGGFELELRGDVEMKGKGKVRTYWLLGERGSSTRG
T4 sequence (peptide): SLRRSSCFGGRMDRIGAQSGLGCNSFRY


Assays:
[1] = target: T1, human NPR1 expressed on CHO-K1 cells; test: cell-based or functional assay
[2] = target: T2, human NPR1 (Natriuretic Peptide …); test: ELISA, 1 uM IgG
[3] = target: T1, human NPR1 expressed on CHO-K1 cells; test: flow cytometry, 1 uM IgG
rat NPR1-ANP complex [4] = target: T5, rat NPR1-ANP complex (rat); test: ELISA, 1 uM IgG, +100 nM ANP
T5 construct: Rat receptor antigen measured in the presence of ANP; also called rNPR1 + ANP; rNPR1-ANP-complex
T5 sequence (P18910 29-469, one chain of several): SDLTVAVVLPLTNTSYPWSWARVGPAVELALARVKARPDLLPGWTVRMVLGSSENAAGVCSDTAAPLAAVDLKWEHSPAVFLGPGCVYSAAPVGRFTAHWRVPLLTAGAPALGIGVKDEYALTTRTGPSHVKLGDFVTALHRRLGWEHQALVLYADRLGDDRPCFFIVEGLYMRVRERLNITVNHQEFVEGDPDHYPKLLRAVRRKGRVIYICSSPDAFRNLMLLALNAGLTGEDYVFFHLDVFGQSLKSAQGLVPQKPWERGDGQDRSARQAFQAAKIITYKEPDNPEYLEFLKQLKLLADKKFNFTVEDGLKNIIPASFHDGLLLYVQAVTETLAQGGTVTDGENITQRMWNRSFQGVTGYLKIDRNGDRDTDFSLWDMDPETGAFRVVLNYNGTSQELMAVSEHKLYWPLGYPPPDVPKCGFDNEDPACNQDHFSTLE

human NPR1-ANP complex [5] = target: T3, human NPR1-ANP complex; test: ELISA, 1 uM IgG, +100 nM ANP
[6] = target: T4, human NPR1 expressed on CHO-K1 cells in …; test: flow cytometry, 1 uM IgG, +100 nM ANP
rat NPR1-ANP complex [7] = target: T5, rat NPR1-ANP complex; test: ELISA, IgG titrated on the antigen with 250 fold molar excess of ANP
human NPR1-ANP complex [8] = target: T3, human NPR1-ANP complex; test: ELISA, IgG titrated on the antigen with 250 fold molar excess of ANP [cont.]

cGMP conc [nM] at 1 uM IgG, +0.075 nM ANP [1] [nM] | cGMP conc [nM] at 1 uM IgG, without ANP [1] [nM] | ELISA IgG binding at 1 uM IgG (unit not given) [2] | flow cytometry S/BG [3] [S/BG] | ELISA IgG binding at 1 uM IgG (unit not given) (rat NPR1-ANP complex [4]) | ELISA IgG binding at 1 uM IgG (unit not given) (human NPR1-ANP complex [5]) | flow cytometry S/BG [6] [S/BG] | EC50 (read off the curve) (rat NPR1-ANP complex [7]) [pM] | EC50 (read off the curve) (human NPR1-ANP complex [8]) [pM] | Binder
14 | 5 | 54 | 35 | 50 | 76 | 21 |  |  | YY01 IgG (YY01_LALA) (antibody, V domains shown) VH: EVQLVESGGGLVQPGGSLRLSCAASGFTFSSYWISWVRQAPGKGLEWVANIKQSGSETYYVESVKGRFTISRDNAKNSLYLQMNSLRAEDTAVYYCARSLRRRSTEHAGFDVWGQGTLVTVSS VL: DIQMTQSPSSLSASVGDRVTITCRASQGISNYLAWYQQKPGKVPKLLIYAASTLQSGVPSRFSGSGSGTDFTLTISSLQPEDVATYYCQQADKFPYTFGQGTKVEIKR
 |  |  |  |  |  |  | ~200 |  | XX04 IgG (antibody, V domains shown, also called XX04_LALA) VH: QVQLLESGGGLVQPGGSLRLSCAASGFTFSSYWMNWVRQAPGKGLEWVSAISSDGSYTYYADSVKGRFTISRDNSKNTLYLQMNSLRAEDTAVYYCARDRYSMIYSYGAGAFDYWGQGTLVTVSS VL: DIQMTQSPSSLSASVGDRVTITCRASQGISSYLAWYQQKPGKAPKLLIYTASTLQSGVPSRFSGSGSGTDFTLTISSLQPEDFATYYCQQEWVKPRTFGQGTKVEIKR
 |  |  |  | 54 | 60 | 33 |  | ~300 | YY04 IgG (YY04_LALA) (antibody, V domains shown) VH: EVQLVESGGGLVKPGGSLRLSCAASGFTFSNYWISWVRQAPGKGLEWVGRIKSKTYGGTTDYAEPVKGRFTISRDDSKNTLYLQMNSLKTEDTAVYYCAREKYSIRARGHGDYGFDVWGQGTLVTVSS VL: DIQMTQSPSSLSASVGDRVTITCRASQGISNYLAWYQQKPGKVPKLLIYAASTLQSGVPSRFSGSGSGTDFTLTISSLQPEDVATYYCQQGYHAPFTFGQGTKVEIKR
 |  |  |  |  |  |  | ~200 |  | XX03 IgG (antibody, V domains shown, also called XX03_LALA) VH: EVQLLESGGGLVQPGGSLRLSCAASGFTFSSYWMNWVRQAPGKGLEWVSVIESKGNYIFYADSVKGRFTISRDNSKNTLYLQMNSLRAEDTAVYYCARDRYSMIYSYGAGAFDYWGQGTLVTVSS VL: DIQMTQSPSSLSASVGDRVTITCRASQGISSYLAWYQQKPGKAPKLLIYTASTLQSGVPSRFSGSGSGTDFTLTISSLQPEDFATYYCMQSYEKPRTFGQGTKVEIKR

Source: patent US20200392225A1 (Novartis, published 2020)
